Laboratory results reported in patent publication US20170052184A1 (published 2017).
Ends that are not written are not given here.

Legend:
Test in all cases: EIA; Ab 3.906 ng/mL captured on anti-mouse Fc; bt-peptide 500 ng/mL
[1] = target: T1, WT1STHV biotin labeled HCV core peptide (hepatitis C virus, biotin labeled)
T1 peptide: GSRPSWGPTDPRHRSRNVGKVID

[2] = target: Mut6T110S biotin labeled HCV core peptide (hepatitis C virus)
[3] = target: T2, C113T109N biotin labeled HCV core peptide (hepatitis C virus, also: biotin labeled, position not given here)
T2 peptide: RGSRPSWGPND

[4] = target: T3, C113WT biotin labeled HCV core peptide (hepatitis C virus, also: biotin labeled, position not given here)
T3 peptide: RGSRPSWGPTD

[5] = target: T4, Mut1T110N biotin labeled HCV core peptide (hepatitis C virus, biotin labeled)
T4 peptide: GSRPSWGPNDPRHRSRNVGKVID

B1: HCV Neo4 monoclonal antibody (antibody, V domains shown)
VH: QIQLKESGPAVIKPSQSLSLTCIVSGFSITSSVYCWQWIRQPPGKGLEWMGRICYDGSVDYSPSITSRGTISRDTSLNKVFFQLSSVTNEDTAMYYCSRENHIDYYDTTYPSFDVWGAGTTVTVSS
VL: DIVLTQSPASLIVSLGQRATISCRASKSVNEYGYTYMHWYQQKPGLPPKLLIYLASNLDSGVPARFSGSGSGTDFTLNIHPVEEEDAATYYCQHSRELPYTFGGGTKLEIKR
B1 was tested, and the “signal at 492 nm” value [1] was 0.669 OD 492 nm, the “signal at 492 nm” value [2] was 0.0847 OD 492 nm and the “signal at 492 nm” value [3] was 0.0717 OD 492 nm. For the same binder, the “signal at 492 nm” value [4] was 0.0694 OD 492 nm and the “signal at 492 nm” value [5] was 0.0719 OD 492 nm.
